Starred links: 1 amine or outer side, 2 acyl side, 3 side chain; linkers in the order of their positions; H or OH if unused. Non-standard residues stand in square brackets, D forms with d. Groups on a side chain read outwards from the residue. Primed or numbered codes have the meaning given here. No end group written: not given here. *: point of attachment. γGlu = O=C(O)[C@H](CCC(=O)[*:2])N[*:1]; Stearoyl = CCCCCCCCCCCCCCCCCC(=O)*; αMeF = C[C@](N)(Cc1ccccc1)C(=O)O; αMeK = C[C@](N)(CCCCN)C(=O)O; αMeS = C[C@](N)(CO)C(=O)O; PEG2′ = not defined here; Aib = CC(C)(N)C(=O)O
Target: GLP-1 receptor (GLP-1R) (human, UniProt P43220 24-463)
Experiment: cell-based or functional assay

Binder	cAMP Mean pM GLP-1R [pM]	cAMP Primary assay EC50 GLP-1R n1 [nM]	cAMP Primary assay EC50 GLP-1R n2 [nM]
H[Aib]EK([PEG2′-PEG2′-γGlu-Stearoyl])S[αMeF]TSDV[αMeS]S[αMeF]LEGEAA[αMeK]E[αMeF]IA[αMeF]VV[αMeK]GG-NH2 [SEQ ID NO 125]	24900	25	24.9
H[Aib]EGS[αMeF]TK([PEG2′-PEG2′-γGlu-Stearoyl])DV[αMeS]S[αMeF]LEGEAA[αMeK]E[αMeF]IA[αMeF]VV[αMeK]GG-NH2 [SEQ ID NO 121]	25100	25	25.1
H[Aib]EGS[αMeF]TSDK([PEG2′-PEG2′-γGlu-Stearoyl])[αMeS]S[αMeF]LEGEAA[αMeK]E[αMeF]IA[αMeF]VV[αMeK]GG-NH2 [SEQ ID NO 119]	17	0.018	0.0157
H[Aib]EGS[αMeF]TSDVK([PEG2′-PEG2′-γGlu-Stearoyl])S[αMeF]LEGEAA[αMeK]E[αMeF]IA[αMeF]VV[αMeK]GG-NH2 [SEQ ID NO 118]	783	0.81	0.758
H[Aib]EGS[αMeF]TSDV[αMeS]S[αMeF]LEK([PEG2′-PEG2′-γGlu-Stearoyl])EAA[αMeK]E[αMeF]IA[αMeF]VV[αMeK]GG-NH2 [SEQ ID NO 113]	18	0.018	0.0174
H[Aib]EGS[αMeF]TSDV[αMeS]S[αMeF]K([PEG2′-PEG2′-γGlu-Stearoyl])EGEAA[αMeK]E[αMeF]IA[αMeF]VV[αMeK]GG-NH2 [SEQ ID NO 115]	6	0.006	0.00539
H[Aib]EGSK([PEG2′-PEG2′-γGlu-Stearoyl])TSDV[αMeS]S[αMeF]LEGEAA[αMeK]E[αMeF]IA[αMeF]VV[αMeK]GG-NH2 [SEQ ID NO 123]	4660	4.9	4.43
H[Aib]EGS[αMeF]K([PEG2′-PEG2′-γGlu-Stearoyl])SDV[αMeS]S[αMeF]LEGEAA[αMeK]E[αMeF]IA[αMeF]VV[αMeK]GG-NH2 [SEQ ID NO 122]	25200	25	25.2
H[Aib]EGS[αMeF]TSDV[αMeS]S[αMeF]LK([PEG2′-PEG2′-γGlu-Stearoyl])GEAA[αMeK]E[αMeF]IA[αMeF]VV[αMeK]GG-NH2 [SEQ ID NO 114]	503	0.55	0.458

Target: glucagon receptor (GCGR) (human, UniProt P47871 26-477)
Sequence (P47871 26-477): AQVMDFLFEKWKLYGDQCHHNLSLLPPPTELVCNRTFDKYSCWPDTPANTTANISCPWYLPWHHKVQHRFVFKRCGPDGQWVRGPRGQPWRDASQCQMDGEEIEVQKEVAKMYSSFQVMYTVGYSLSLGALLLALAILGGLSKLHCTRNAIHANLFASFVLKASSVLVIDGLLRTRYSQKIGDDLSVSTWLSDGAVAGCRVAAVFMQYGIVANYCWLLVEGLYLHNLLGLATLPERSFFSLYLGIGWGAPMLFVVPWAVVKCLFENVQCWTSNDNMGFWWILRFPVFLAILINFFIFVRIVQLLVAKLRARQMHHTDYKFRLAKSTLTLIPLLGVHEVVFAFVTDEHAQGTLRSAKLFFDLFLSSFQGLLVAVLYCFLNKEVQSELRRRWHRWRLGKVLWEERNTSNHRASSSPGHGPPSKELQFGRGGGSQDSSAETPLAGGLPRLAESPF
Experiment: cell-based or functional assay

Binder	cAMP Primary assay EC50 Gluc-R [nM]	cAMP Primary assay EC50 Gluc-R (2nd) [nM]
H[Aib]EK([PEG2′-PEG2′-γGlu-Stearoyl])S[αMeF]TSDV[αMeS]S[αMeF]LEGEAA[αMeK]E[αMeF]IA[αMeF]VV[αMeK]GG-NH2 [SEQ ID NO 125]	25	24.9
H[Aib]EGS[αMeF]TK([PEG2′-PEG2′-γGlu-Stearoyl])DV[αMeS]S[αMeF]LEGEAA[αMeK]E[αMeF]IA[αMeF]VV[αMeK]GG-NH2 [SEQ ID NO 121]	25	25.1
H[Aib]EGS[αMeF]TSDK([PEG2′-PEG2′-γGlu-Stearoyl])[αMeS]S[αMeF]LEGEAA[αMeK]E[αMeF]IA[αMeF]VV[αMeK]GG-NH2 [SEQ ID NO 119]	25	25.2
H[Aib]EGS[αMeF]TSDVK([PEG2′-PEG2′-γGlu-Stearoyl])S[αMeF]LEGEAA[αMeK]E[αMeF]IA[αMeF]VV[αMeK]GG-NH2 [SEQ ID NO 118]	25	25.2
H[Aib]EGS[αMeF]TSDV[αMeS]S[αMeF]LEK([PEG2′-PEG2′-γGlu-Stearoyl])EAA[αMeK]E[αMeF]IA[αMeF]VV[αMeK]GG-NH2 [SEQ ID NO 113]	25	24.9
H[Aib]EGS[αMeF]TSDV[αMeS]S[αMeF]K([PEG2′-PEG2′-γGlu-Stearoyl])EGEAA[αMeK]E[αMeF]IA[αMeF]VV[αMeK]GG-NH2 [SEQ ID NO 115]	25	25.3
H[Aib]EGSK([PEG2′-PEG2′-γGlu-Stearoyl])TSDV[αMeS]S[αMeF]LEGEAA[αMeK]E[αMeF]IA[αMeF]VV[αMeK]GG-NH2 [SEQ ID NO 123]	26	25.6
H[Aib]EGS[αMeF]K([PEG2′-PEG2′-γGlu-Stearoyl])SDV[αMeS]S[αMeF]LEGEAA[αMeK]E[αMeF]IA[αMeF]VV[αMeK]GG-NH2 [SEQ ID NO 122]	25	25.2
H[Aib]EGS[αMeF]TSDV[αMeS]S[αMeF]LK([PEG2′-PEG2′-γGlu-Stearoyl])GEAA[αMeK]E[αMeF]IA[αMeF]VV[αMeK]GG-NH2 [SEQ ID NO 114]	25	25.4

Target: T1, glucose-dependent insulinotropic peptide (gastric inhibitory polypeptide) receptor (GIPR) (human, UniProt P48546 22-466)
T1 sequence (looked up): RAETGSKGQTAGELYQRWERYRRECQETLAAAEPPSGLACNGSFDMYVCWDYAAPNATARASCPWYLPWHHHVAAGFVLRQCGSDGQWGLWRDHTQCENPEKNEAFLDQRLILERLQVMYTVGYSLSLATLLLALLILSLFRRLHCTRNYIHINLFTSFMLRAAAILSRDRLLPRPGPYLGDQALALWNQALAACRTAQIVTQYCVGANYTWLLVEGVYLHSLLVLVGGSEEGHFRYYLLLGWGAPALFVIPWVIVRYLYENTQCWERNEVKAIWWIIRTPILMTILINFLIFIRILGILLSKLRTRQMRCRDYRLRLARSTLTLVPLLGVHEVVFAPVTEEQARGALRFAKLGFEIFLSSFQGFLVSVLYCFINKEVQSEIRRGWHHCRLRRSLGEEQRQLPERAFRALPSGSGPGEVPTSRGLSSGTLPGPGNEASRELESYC
Experiment: cell-based or functional assay

Binder	cAMP Primary assay EC50 GIP-R [nM]	cAMP Primary assay EC50 GIP-R (2nd) [nM]
H[Aib]EK([PEG2′-PEG2′-γGlu-Stearoyl])S[αMeF]TSDV[αMeS]S[αMeF]LEGEAA[αMeK]E[αMeF]IA[αMeF]VV[αMeK]GG-NH2 [SEQ ID NO 125]	25	24.9
H[Aib]EGS[αMeF]TK([PEG2′-PEG2′-γGlu-Stearoyl])DV[αMeS]S[αMeF]LEGEAA[αMeK]E[αMeF]IA[αMeF]VV[αMeK]GG-NH2 [SEQ ID NO 121]	25	25.1
H[Aib]EGS[αMeF]TSDK([PEG2′-PEG2′-γGlu-Stearoyl])[αMeS]S[αMeF]LEGEAA[αMeK]E[αMeF]IA[αMeF]VV[αMeK]GG-NH2 [SEQ ID NO 119]	25	25.2
H[Aib]EGS[αMeF]TSDVK([PEG2′-PEG2′-γGlu-Stearoyl])S[αMeF]LEGEAA[αMeK]E[αMeF]IA[αMeF]VV[αMeK]GG-NH2 [SEQ ID NO 118]	25	25.2
H[Aib]EGS[αMeF]TSDV[αMeS]S[αMeF]LEK([PEG2′-PEG2′-γGlu-Stearoyl])EAA[αMeK]E[αMeF]IA[αMeF]VV[αMeK]GG-NH2 [SEQ ID NO 113]	25	24.9
H[Aib]EGS[αMeF]TSDV[αMeS]S[αMeF]K([PEG2′-PEG2′-γGlu-Stearoyl])EGEAA[αMeK]E[αMeF]IA[αMeF]VV[αMeK]GG-NH2 [SEQ ID NO 115]	25	25.3
H[Aib]EGSK([PEG2′-PEG2′-γGlu-Stearoyl])TSDV[αMeS]S[αMeF]LEGEAA[αMeK]E[αMeF]IA[αMeF]VV[αMeK]GG-NH2 [SEQ ID NO 123]	26	25.6
H[Aib]EGS[αMeF]K([PEG2′-PEG2′-γGlu-Stearoyl])SDV[αMeS]S[αMeF]LEGEAA[αMeK]E[αMeF]IA[αMeF]VV[αMeK]GG-NH2 [SEQ ID NO 122]	25	25.2
H[Aib]EGS[αMeF]TSDV[αMeS]S[αMeF]LK([PEG2′-PEG2′-γGlu-Stearoyl])GEAA[αMeK]E[αMeF]IA[αMeF]VV[αMeK]GG-NH2 [SEQ ID NO 114]	25	25.4

From patent US20200079833A1 (AstraZeneca / MedImmune, published 2020)
